Measurements published in patent US20220010008A1.
Several values for one entry are separate records, joined by “and”; a condition that tells them apart may be missing. Equal values may be shown once. Each block holds one binder with its values, some of them ahead of it.

Columns and labels:
[1] = molecular target: recombinant human IL-5 protein (human) (UniProt P05113); test: FACS blocking: biotin-IL-5 bound to CHOK1 IL-5Ra/CSF2RB cells, Ab 6.6667 nM
[2] = molecular target: recombinant human IL-5 protein (human) (UniProt P05113); test: cell-based or functional assay
[3] = molecular target: recombinant human IL-5 protein (human) (UniProt P05113); test: FACS blocking: biotin-IL-5 bound to CHOK1 IL-5Ra/CSF2RB cells, Ab 1.3333 nM
[4] = molecular target: recombinant human IL-5 protein (human) (UniProt P05113); test: ELISA, biotin-human IL-5 on streptavidin plate, Ab 0.5333 nM
[5] = molecular target: recombinant human IL-5 protein (human) (UniProt P05113); test: FACS blocking: biotin-IL-5 bound to CHOK1 IL-5Ra/CSF2RB cells, Ab 0.0021 nM
[6] = molecular target: recombinant human IL-5 protein (human) (UniProt P05113); test: FACS blocking: biotin-IL-5 bound to CHOK1 IL-5Ra/CSF2RB cells, Ab 0.2667 nM
[7] = molecular target: recombinant human IL-5 protein (human) (UniProt P05113); test: SPR, human IL-5 immobilized on CM5 chip, chimeric antibody as analyte, 1:1 global fit
[8] = molecular target: recombinant human IL-5 protein (human) (UniProt P05113); test: ELISA, biotin-human IL-5 on streptavidin plate, Ab 0.0009 nM
[9] = molecular target: recombinant human IL-5 protein (human) (UniProt P05113); test: ELISA, biotin-human IL-5 on streptavidin plate, Ab 0.0043 nM
[10] = molecular target: recombinant human IL-5 protein (human) (UniProt P05113); test: ELISA, biotin-human IL-5 on streptavidin plate, Ab 13.3333 nM
[11] = molecular target: recombinant human IL-5 protein (human) (UniProt P05113); test: FACS blocking: biotin-IL-5 bound to CHOK1 IL-5Ra/CSF2RB cells, Ab 0.0533 nM
[12] = molecular target: recombinant human IL-5 protein (human) (UniProt P05113); test: FACS blocking: biotin-IL-5 bound to CHOK1 IL-5Ra/CSF2RB cells, Ab 33.3333 nM
[13] = molecular target: recombinant human IL-5 protein (human) (UniProt P05113); test: ELISA, biotin-human IL-5 on streptavidin plate, Ab 2.6667 nM
[14] = molecular target: recombinant human IL-5 protein (human) (UniProt P05113); test: ELISA, biotin-human IL-5 on streptavidin plate, Ab 0.0213 nM
[15] = molecular target: recombinant human IL-5 protein (human) (UniProt P05113); test: FACS blocking: biotin-IL-5 bound to CHOK1 IL-5Ra/CSF2RB cells, Ab 0.0004 nM
[16] = molecular target: recombinant human IL-5 protein (human) (UniProt P05113); test: FACS blocking: biotin-IL-5 bound to CHOK1 IL-5Ra/CSF2RB cells, Ab 0.0107 nM
[17] = molecular target: recombinant human IL-5 protein (human) (UniProt P05113); test: ELISA, biotin-human IL-5 on streptavidin plate, Ab 0.1067 nM
[18] = molecular target: recombinant human IL-5 protein (human) (UniProt P05113); test: ELISA, biotin-human IL-5 on streptavidin plate, Ab 0.0002 nM
[19] = molecular target: recombinant human IL-5 protein with His tag (human) (UniProt P05113); test: ELISA, biotin-human IL-5 on streptavidin; antibody 13.3333 nM
[20] = molecular target: recombinant human IL-5 protein with His tag (human) (UniProt P05113); test: ELISA, biotin-human IL-5 on streptavidin; antibody 0.0009 nM
[21] = molecular target: recombinant human IL-5 protein with His tag (human) (UniProt P05113); test: ELISA, biotin-human IL-5 on streptavidin; antibody 0.5333 nM
[22] = molecular target: recombinant human IL-5 protein with His tag (human) (UniProt P05113); test: ELISA, biotin-human IL-5 on streptavidin; antibody 0.0043 nM
[23] = molecular target: recombinant human IL-5 protein with His tag (human) (UniProt P05113); test: ELISA, biotin-human IL-5 on streptavidin; antibody 0.0213 nM
[24] = molecular target: recombinant human IL-5 protein with His tag (human) (UniProt P05113); test: ELISA, biotin-human IL-5 on streptavidin; antibody 0.1067 nM
[25] = molecular target: recombinant human IL-5 protein with His tag (human) (UniProt P05113); test: ELISA, biotin-human IL-5 on streptavidin; antibody 2.6667 nM
[26] = molecular target: recombinant human IL-5 protein with His tag (human) (UniProt P05113); test: ELISA, biotin-human IL-5 on streptavidin; antibody 0.0002 nM

Fluorescence intensity [1]: 36 MFI
RLU, CTLL-2 proliferation with IL-5, Ab 0.000170667 nM [2]: 50700 RLU and 51700 RLU
RLU, CTLL-2 proliferation with IL-5, Ab 0.000853333 nM [2]: 50800 RLU and 50700 RLU
RLU, CTLL-2 proliferation with IL-5, Ab 0.004266667 nM [2]: 41400 RLU and 48200 RLU
RLU, CTLL-2 proliferation with IL-5, Ab 0.02133333 nM [2]: 33800 RLU and 36400 RLU
RLU, CTLL-2 proliferation with IL-5, Ab 0.1066667 nM [2]: 12700 RLU and 13200 RLU
RLU, CTLL-2 proliferation with IL-5, Ab 0.5333334 nM [2]: 9570 RLU and 10400 RLU
RLU, CTLL-2 proliferation with IL-5, Ab 2.666667 nM [2]: 8620 RLU and 8160 RLU
RLU, CTLL-2 proliferation with IL-5, Ab 13.33333 nM [2]: 7310 RLU and 6690 RLU
RLU, CTLL-2 proliferation with IL-5, Ab 66.66666 nM [2]: 5230 RLU and 5240 RLU
RLU, CTLL-2 proliferation with IL-5, Ab 3.41333E-05 nM [2]: 56100 RLU and 52200 RLU
RLU, TF-1 proliferation with IL-5, Ab 0.00001 nM [2]: 99500 RLU and 101000 RLU
RLU, TF-1 proliferation with IL-5, Ab 0.00003 nM [2]: 100000 RLU and 95000 RLU
RLU, TF-1 proliferation with IL-5, Ab 0.00017 nM [2]: 96400 RLU and 88800 RLU
RLU, TF-1 proliferation with IL-5, Ab 0.00085 nM [2]: 89200 RLU and 82900 RLU
RLU, TF-1 proliferation with IL-5, Ab 0.00427 nM [2]: 56700 RLU and 54800 RLU
RLU, TF-1 proliferation with IL-5, Ab 0.02133 nM [2]: 45300 RLU and 43900 RLU
RLU, TF-1 proliferation with IL-5, Ab 0.10667 nM [2]: 39000 RLU and 38700 RLU
RLU, TF-1 proliferation with IL-5, Ab 0.53333 nM [2]: 36400 RLU and 40100 RLU
RLU, TF-1 proliferation with IL-5, Ab 2.66667 nM [2]: 34800 RLU and 41200 RLU
RLU, TF-1 proliferation with IL-5, Ab 13.33333 nM [2]: 35700 RLU and 39000 RLU
Fluorescence intensity [3]: 52 MFI
OD450 nm [4]: 2.74 OD450 nm and 2.91 OD450 nm
Fluorescence intensity [5]: 88 MFI
Fluorescence intensity [6]: 76 MFI
Kd [7]: < 0.0637 nM
koff [7]: < 1e-05 s⁻¹
kon [7]: 157000 M⁻¹ s⁻¹
OD450 nm [8]: 0.102 OD450 nm and 0.104 OD450 nm
OD450 nm [9]: 0.172 OD450 nm and 0.156 OD450 nm
OD450 nm [10]: 3.44 OD450 nm and 3.72 OD450 nm
Fluorescence intensity [11]: 94 MFI
Fluorescence intensity [12]: 31 MFI
OD450 nm [13]: 3.22 OD450 nm and 3.35 OD450 nm
OD450 nm [14]: 0.406 OD450 nm and 0.385 OD450 nm
Fluorescence intensity [15]: 94 MFI
Fluorescence intensity [16]: 86 MFI
OD450 nm [17]: 1.25 OD450 nm and 1.3 OD450 nm
OD450 nm [18]: 0.103 OD450 nm and 0.101 OD450 nm
B1: 147D7H2 mouse-human chimeric antibody (antibody, human IgG4, V domains shown)
VH: EVQLQQSGAELVKPGASVKLSCTASGFNIKDYFIHWVKQRTEQGLEWIGRIDTEDGETKYAPKFQGKATITIDTSSNTAYLYFSSLTSEDTAMYYCARYGNYVAMDYWGQGTSVTVSS
VL: QIVLTQSPALMSASPGEKVTMTCSASSSVSYMFWYQQKPSSSPKPWIYLTSKLASGVPARFSGSGSGTSYSLTISSVEAEDAATYYCQQWNSNPYTFGGGTKLEIK

OD450 nm [19]: 3.21 and 3.52
OD450 nm [20]: 0.088 and 0.09
OD450 nm [21]: 2.76
OD450 nm [22]: 0.158 and 0.159
OD450 nm [23]: 0.438 and 0.475
OD450 nm [24]: 1.42 and 1.47
OD450 nm [25]: 3.09 and 3.2
OD450 nm [26]: 0.073 and 0.074
B2: 147D7H2 (murine hybridoma antibody) (antibody, V domains shown)
VH: EVQLQQSGAELVKPGASVKLSCTASGFNIKDYFIHWVKQRTEQGLEWIGRIDTEDGETKYAPKFQGKATITIDTSSNTAYLYFSSLTSEDTAMYYCARYGNYVAMDYWGQGTSVTVSS
VL: QIVLTQSPALMSASPGEKVTMTCSASSSVSYMFWYQQKPSSSPKPWIYLTSKLASGVPARFSGSGSGTSYSLTISSVEAEDAATYYCQQWNSNPYTFGGGTKLEIK
